# Measurements reported in patent US20250326817A1 (LA JOLLA INSTITUTE FOR IMMUNOLOGY, published 2025).
# Changes are numbered by the printed parent chain. Numbers in names are those of the source.
# T1: mouse BTLA, full length, fused to EGFP, on HEK293 FreeStyle cells (mouse, UniProt Q7TSA3 30-306)
# T1 construct: whole, on cells; also called mBTLA; mBTLA-EGFP; not shown: EGFP fused at the C-terminus (pEGFP-N1 vector)
# T1 sequence (looked up): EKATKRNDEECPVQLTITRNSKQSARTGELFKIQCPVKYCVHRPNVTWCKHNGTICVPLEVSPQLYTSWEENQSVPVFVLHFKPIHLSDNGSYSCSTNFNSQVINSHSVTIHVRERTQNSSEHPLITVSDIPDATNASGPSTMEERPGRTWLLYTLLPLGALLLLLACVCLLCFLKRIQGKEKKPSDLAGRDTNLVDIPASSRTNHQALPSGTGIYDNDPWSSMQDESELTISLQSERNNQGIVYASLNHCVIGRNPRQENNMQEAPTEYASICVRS
# T2: mouse LIGHT, full length, on transfected cells (mouse, UniProt Q9QYH9 1-239)
# T2 construct: whole, on cells; also called mLIGHT; mLIGHT-IRES-EGFP
# T2 sequence (looked up): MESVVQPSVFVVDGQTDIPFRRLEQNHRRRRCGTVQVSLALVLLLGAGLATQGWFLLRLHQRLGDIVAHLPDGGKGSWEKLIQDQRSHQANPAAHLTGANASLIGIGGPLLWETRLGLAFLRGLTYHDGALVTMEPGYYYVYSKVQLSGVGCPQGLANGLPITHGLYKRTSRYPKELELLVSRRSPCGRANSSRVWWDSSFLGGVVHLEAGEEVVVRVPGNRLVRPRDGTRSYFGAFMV
# T3: mouse BTLA, soluble protein (analyte of the Octet assay) (mouse, UniProt Q7TSA3 30-183, limits assumed)
# T3 construct: The construct is not described; also called mBTLA; mBTLA-penta-His-tag
# T3 sequence (looked up): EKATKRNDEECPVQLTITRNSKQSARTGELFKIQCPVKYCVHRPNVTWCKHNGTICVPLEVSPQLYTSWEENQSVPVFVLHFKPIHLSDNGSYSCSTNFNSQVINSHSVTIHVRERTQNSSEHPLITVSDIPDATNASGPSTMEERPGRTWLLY
# T4: single chain homotrimeric mouse LIGHT extracellular domain (G73-V239), N-terminal HHHHHHGG, joined by two … (mouse, UniProt Q9QYH9 73-239)
# T4 construct: Soluble analyte of the Octet assay; from Expi293 cells; also called mLIGHT
# T4 sequence: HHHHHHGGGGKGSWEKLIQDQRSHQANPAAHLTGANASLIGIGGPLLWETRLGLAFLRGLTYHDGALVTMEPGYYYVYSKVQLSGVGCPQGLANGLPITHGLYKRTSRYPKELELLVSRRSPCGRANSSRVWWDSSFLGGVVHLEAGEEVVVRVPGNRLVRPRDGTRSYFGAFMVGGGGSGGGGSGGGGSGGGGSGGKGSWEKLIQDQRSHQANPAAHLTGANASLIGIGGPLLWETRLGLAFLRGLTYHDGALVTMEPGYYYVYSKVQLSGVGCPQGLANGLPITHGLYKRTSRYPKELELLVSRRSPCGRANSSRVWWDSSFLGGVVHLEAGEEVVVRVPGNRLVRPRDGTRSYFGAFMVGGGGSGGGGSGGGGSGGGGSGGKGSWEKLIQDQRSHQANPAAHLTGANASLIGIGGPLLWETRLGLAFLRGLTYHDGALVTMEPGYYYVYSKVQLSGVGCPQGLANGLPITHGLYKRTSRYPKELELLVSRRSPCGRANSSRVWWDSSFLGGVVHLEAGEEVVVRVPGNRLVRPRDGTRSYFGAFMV
# T5: mouse CD160 residues I30-H154 with C-terminal …, refolded from E. coli inclusion bodies (mouse, UniProt O88875 30-154, biotin (mCD160-biotin in the cell staining assay; site not stated))
# T5 construct: range 30-154; also called mCD160; mCD160-biotin
# T5 sequence: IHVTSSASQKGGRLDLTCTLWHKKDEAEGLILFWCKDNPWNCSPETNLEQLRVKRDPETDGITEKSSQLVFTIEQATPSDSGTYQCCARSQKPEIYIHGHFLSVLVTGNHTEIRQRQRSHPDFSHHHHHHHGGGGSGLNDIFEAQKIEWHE
# B1: mouse HVEM M56D, full length, fused to mCherry, on cells (receptor)
# chain: QPSCRQEEFLVGDECCPDCNPGYHVKQVCSEHTGTVCAPCPPQTYTAHANGLSKCLPCGVCDPDMGLLTWQECSSWKDTVCRCIPGYFCENQDGSHCSTCLQHTTCPPGQRVEKRGTHDQDTVCADCLTGTFSLGGTQEECLPWTNCSAFQQEVRRGTNSTDTTCSSQVVYYVVSILLPLVIVGAGIAGFLICTRRHLHTSSVAKELEPFQEQQENTIRFPVTEVGFAETEEETASN
# notes: also called mHVEM M56D; not shown: mCherry fused at the C-terminus (pmCherry-N1 vector)
# B2: mouse HVEM L90A, full length, fused to mCherry, on cells (receptor)
# chain: B1 chain with D18M, L52A
# notes: also called mHVEM L90A; not shown: mCherry fused at the C-terminus (pmCherry-N1 vector)
# B3: mouse HVEM L94D, full length, fused to mCherry, on cells (receptor)
# chain: B1 chain with D18M, L56D
# notes: also called mHVEM L94D; not shown: mCherry fused at the C-terminus (pmCherry-N1 vector)
# B4: mouse HVEM R43D, full length, fused to mCherry, on cells (receptor)
# chain: B1 chain with R5D, D18M
# notes: also called mHVEM R43D; not shown: mCherry fused at the C-terminus (pmCherry-N1 vector)
# B5: mouse HVEM L94A, full length, fused to mCherry, on cells (receptor)
# chain: B1 chain with D18M, L56A
# notes: also called mHVEM L94A; not shown: mCherry fused at the C-terminus (pmCherry-N1 vector)
# B6: mouse HVEM H86D, full length, fused to mCherry, on cells (receptor)
# chain: B1 chain with D18M, H48D
# notes: also called mHVEM H86D; not shown: mCherry fused at the C-terminus (pmCherry-N1 vector)
# B7: mouse HVEM V74D, full length, fused to mCherry, on cells (receptor)
# chain: B1 chain with D18M, V36D
# notes: also called mHVEM V74D; not shown: mCherry fused at the C-terminus (pmCherry-N1 vector)
# B8: mouse HVEM G72D, full length, fused to mCherry, on cells (receptor)
# chain: B1 chain with D18M, G34D
# notes: also called mHVEM G72D; not shown: mCherry fused at the C-terminus (pmCherry-N1 vector)
# B9: mouse HVEM, wild type, full length, fused to mCherry, on HEK293 FreeStyle cells (receptor)
# chain: B1 chain with D18M
# notes: also called mHVEM; WT mHVEM; not shown: mCherry fused at the C-terminus (pmCherry-N1 vector)
# B10: G72D-V74A (receptor)
# chain: B1 chain with D18M, G34D, V36A
# notes: on HEK293 FreeStyle cells; also called mHVEM G72D-V74A; not shown: mCherry reporter (and any vector linker) fused at the cytoplasmic C-terminus (pmCherry-N1)
# B11: G72D-V74D (receptor)
# chain: B1 chain with D18M, G34D, V36D
# notes: on HEK293 FreeStyle cells; also called mHVEM G72D-V74D; not shown: mCherry reporter (and any vector linker) fused at the cytoplasmic C-terminus (pmCherry-N1)
# B12: A76D_H86D_L90D (receptor)
# chain: B1 chain with D18M, A38D, H48D, L52D
# notes: on HEK293 FreeStyle cells; also called mHVEM A76D-H86D-L90D; not shown: mCherry fused at the C-terminus (pmCherry-N1 vector)
# B13: A76D_H86D_L90A (receptor)
# chain: B1 chain with D18M, A38D, H48D, L52A
# notes: on HEK293 FreeStyle cells; also called mHVEM A76D-H86D-L90A; not shown: mCherry fused at the C-terminus (pmCherry-N1 vector) and any vector linker
# B14: H86R-L90A (receptor)
# chain: B1 chain with D18M, H48R, L52A
# notes: on HEK293 FreeStyle cells; also called mHVEM H86R-L90A; not shown: mCherry reporter (and any vector linker) fused at the cytoplasmic C-terminus (pmCherry-N1)
# B15: G72A-V74D (receptor)
# chain: B1 chain with D18M, G34A, V36D
# notes: on HEK293 FreeStyle cells; also called mHVEM G72A-V74D; not shown: mCherry reporter (and any vector linker) fused at the cytoplasmic C-terminus (pmCherry-N1)
# B16: H86D-L90R (receptor)
# chain: B1 chain with D18M, H48D, L52R
# notes: on HEK293 FreeStyle cells; also called mHVEM H86D-L90R; not shown: mCherry reporter (and any vector linker) fused at the cytoplasmic C-terminus (pmCherry-N1)
# B17: mouse HVEM A76D, full length, fused to mCherry, on cells (receptor)
# chain: B1 chain with D18M, A38D
# notes: also called mHVEM A76D; not shown: mCherry fused at the C-terminus (pmCherry-N1 vector)
# B18: mouse HVEM H86D-L90A double mutein, full length, fused to mCherry, on cells (receptor)
# chain: B1 chain with D18M, H48D, L52A
# notes: also called mHVEM H86D-L90A; mHVEM^-LIGHT; not shown: mCherry fused at the C-terminus (pmCherry-N1 vector)
# B19: G72D-V74R (receptor)
# chain: B1 chain with D18M, G34D, V36R
# notes: on HEK293 FreeStyle cells; also called mHVEM G72D-V74R; not shown: mCherry reporter (and any vector linker) fused at the cytoplasmic C-terminus (pmCherry-N1)
# B20: mouse HVEM G72R-V74A double mutein, full length, fused to mCherry, on cells (receptor)
# chain: B1 chain with D18M, G34R, V36A
# notes: also called mHVEM G72R-V74A; mHVEM^-BT/160; not shown: mCherry fused at the C-terminus (pmCherry-N1 vector)
# B21: H86A-L90A (receptor)
# chain: B1 chain with D18M, H48A, L52A
# notes: on HEK293 FreeStyle cells; also called mHVEM H86A-L90A; not shown: mCherry reporter (and any vector linker) fused at the cytoplasmic C-terminus (pmCherry-N1)
# B22: H86D-L90D (receptor)
# chain: B1 chain with D18M, H48D, L52D
# notes: on HEK293 FreeStyle cells; also called mHVEM H86D-L90D; not shown: mCherry reporter (and any vector linker) fused at the cytoplasmic C-terminus (pmCherry-N1)
# B23: mouse HVEM R43D-M56A-K64D triple mutation, full length, fused to mCherry, on cells (receptor)
# chain: B1 chain with R5D, D18A, K26D
# notes: also called mHVEM R43D-M56A-K64D; not shown: mCherry fused at the C-terminus (pmCherry-N1 vector)
# B24: mouse HVEM (Q39-Q206), wild type, fused to human IgG1 and a hexa-His tag (Fc fusion)
# chain (part 1 of 2): QPSCRQEEFLVGDECCPMCNPGYHVKQVCSEHTGTVCAPCPPQTYTAHANGLSKCLPCGVCDPDMGLLTWQECSSWKDTVCRCIPGYFCENQDGSHCSTCLQHTTCPPGQRVEKRGTHDQDTVCADCLTGTFSLGGTQEECLPWTNCSAFQQEVRRGTNSTDTTCSSQ
# chain (part 2 of 2): HHHHHH
# notes: From Expi293 cells; also called mHVEM-hIgG1; mHVEMWT; not shown: human IgG1
# Molecular target: T1, mouse BTLA, full length, fused to EGFP, …
# Assay: flow cytometry, cell-cell interaction assay
# Experimental: (§1) After 2˜3 days, the cells were harvested and diluted to […]. […] These cells were further recorded and analyzed by flow cytometry. […] The cells were incubated for 30 min with shaking at room temperature and washed once by PBS containing 0.2% BSA (PBS-BSA). The cells were re-suspended in 100 uL of PBS-BSA and analyzed by flow cytometry.
row,Binder,binding result
1,B1,binds
2,B2,binds
3,B3,binds
4,B4,binds
5,B5,binds
6,B6,binds

# Molecular target: T2, mouse LIGHT, full length, on …
# Assay: flow cytometry, cell-cell interaction assay
# Experimental: as §1
row,Binder,binding result
1,B1,binds
2,B4,binds
3,B7,binds
4,B8,binds

# Molecular target: T1, mouse BTLA, full length, fused to EGFP, …
# Assay: cell-cell flow cytometry (mHVEM-mCherry cells + mBTLA-EGFP cells)
# Experimental: as §1
row,Binder,binding result
1,B9,binds
2,B10,no binding
3,B11,no binding
4,B12,binds
5,B13,binds
6,B14,binds
7,B15,no binding
8,B16,binds
9,B17,binds
10,B18,binds
11,B19,no binding
12,B20,no binding
13,B21,binds
14,B22,binds

# Molecular target: T2, mouse LIGHT, full length, on …
# Assay: cell-cell flow cytometry (mHVEM-mCherry cells + mLIGHT-IRES-EGFP cells)
# Experimental: as §1
row,Binder,binding result
1,B9,binds
2,B10,binds
3,B11,binds
4,B12,no binding
5,B13,no binding
6,B14,no binding
7,B15,binds
8,B16,no binding
9,B17,binds
10,B19,binds
11,B20,binds
12,B21,no binding
13,B22,no binding

# Molecular target: T3, mouse BTLA, soluble protein (analyte of …)
# Assay: cell-protein flow cytometry (mHVEM-mCherry cells + mBTLA-His/anti-His green)
# Experimental: as §1
row,Binder,binding result
1,B10,no binding
2,B11,no binding
3,B23,no binding
4,B15,no binding
5,B19,no binding
6,B20,no binding

# Molecular target: T4, single chain homotrimeric mouse LIGHT …
# Assay: Octet bio-layer interferometry, mHVEM-hIgG1 on the sensor, LIGHT in solution
# Text: (§2) The results were exported and then analyzed using Prism 5 (GraphPad Software). Final response curves were generated after subtracting the responses of the control groups.
row,Binder,Kd [nM]
1,B24,16.2

# Molecular target: T4, single chain homotrimeric mouse LIGHT …
# Assay: Octet bio-layer interferometry, mHVEM-hIgG1 on the sensor, mLIGHT in solution
# Text: Error bars represent results from at least triplicates. […] Ligands BTLA, CD160 and LIGHT are modeled based on the HVEM structures and are shown as labeled surfaces.
# as §2
row,Binder,Kd [nM]
1,B24,16.2

# Molecular target: T5, mouse CD160 residues I30-H154 with …
# Assay: cell-protein flow cytometry (mHVEM-mCherry cells + mCD160-biotin/streptavidin-AF488)
# Experimental: as §1
row,Binder,binding result
1,B10,no binding
2,B11,no binding
3,B13,no binding
4,B14,binds
5,B15,no binding
6,B16,binds
7,B18,binds
8,B19,no binding
9,B20,no binding
10,B21,binds
11,B22,binds
